Reference: patent US20050120396

Biological target: GST-MKK4 fusion protein [GST: P08515]
Sequence (P08515 whole entry, looked up, the tested form may be a part): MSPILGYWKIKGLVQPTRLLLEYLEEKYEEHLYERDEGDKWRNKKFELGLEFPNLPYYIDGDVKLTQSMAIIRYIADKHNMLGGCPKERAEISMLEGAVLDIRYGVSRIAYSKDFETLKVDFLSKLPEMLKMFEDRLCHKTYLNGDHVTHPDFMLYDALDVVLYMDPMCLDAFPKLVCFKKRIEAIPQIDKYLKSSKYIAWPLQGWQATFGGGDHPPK

Protein | phosphorylation of GST-MKK4 (32P incorporation in kinase reaction, SDS-PAGE and imaging)
purified mouse MEKK1 (protein) MVTAVPAVFSKLVTMLNASGSTHFTRMRRRLMAIADEVEIAEVIQLGVEDTVDGHQDSLQAVAPTSCLENSSLEHTVHREKTGKGLSATRLSASSEDISDRLAGVSVGLPSSTTTEQPKPAVQTKGRPHSQCLNSSPLSHAQLMFPAPSAPCSSAPSVPDISKHRPQAFVPCKIPSASPQTQRKFSLQFQRNCSEHRDSDQLSPVFTQSRPPPSSNIHRPKPSRPVPGSTSKLGDATKSSMTLDLGSASRCDDSFGGGGNSGNAVIPSDETVFTPVEDKCRLDVNTELNSSIEDLLEASMPSSDTTVTFKSEVAVLSPEKAENDDTYKDDVNHNQKCKEKMEAEEEEALAIAMAMSASQDALPIVPQLQVENGEDIIIIQQDTPETLPGHTKAKQPYREDAEWLKGQQIGLGAFSSCYQAQDVGTGTLMAVKQVTYVRNTSSEQEEVVEALREEIRMMGHLNHPNIIRMLGATCEKSNYNLFIEWMAGGSVAHLLSKYGAFKESVVINYTEQLLRGLSYLHENQIIHRDVKGANLLIDSTGQRLRIADFGAAARLASKGTGAGEFQGQLLGTIAFMAPEVLRGQQYGRSCDVWSVGCAIIEMACAKPPWNAEKHSNHLALIFKIASATTAPSIPSHLSPGLRDVAVRCLELQPQDRPPSRELLKHPVFRTTW | The ability of extracts containing his-tagged hMEKK1 to phosphorylate GST-MKK4 was comparable to the activity of purified mouse MEKK1
His-tagged hMEKK1 (polyhistidine-hMEKK1 fusion) (protein) HHHHHHMENKETLKGLHKMDDRPEERMIREKLKATCMPAWKHEWLERRNRRGPVVVKPIPVKGDGSEMNHLAAESPGEVQASAASPASKGRRSPSPGNSPSGRTVKSESPGVRRKRVSPVPFQSGRITPPRRAPSPDGFSPYSPEETNRRVNKVMRARLYLLQQIGPNSFLIGGDSPDNKYRVFIGPQNCSCARGTFCIHLLFVMLRVFQLEPSDPMLWRKTLKNFEVESLFQKYHSRRSSRIKAPSRNTIQKFVSRMSNSHTLSSSSTSTSSSENSIKDEEEQMCPICLLGMLDEESLTVCEDGCRNKLHHHCMSIWAEECRRNREPLICPLCRSKWRSHDFYSHELSSPVDSPSSLRAAQQQTVQQQPLAGSRRNQESNFNLTHYGTQQIPPAYKDLAEPWIQVFGMELVGCLFSRNWNVREMALRRLSHDVSGALLLANGESTGNSGGSSGSSPSGGATSGSSQTSISGDVVEACCSVLSMVCADPVYKVYVAALKTLRAMLVYTPCHSLAERIKLQRLLQPVVDTILVKCADANSRTSQLSISTLLELCKGQAGELAVGREILKAGSIGIGGVDYVLNCILGNQTESNNWQELLGRLCLIDRLLLEFPAEFYPHIVSTDVSQAEPVEIRYKKLLSLLTFALQSIDNSHSMVGKLSRRIYLSSARMVTTVPHVFSKLLEMLSVSSSTHFTRMRRRLMAIADEVEIAEAIQLGVEDTLDGQQDSFLQASVPNNYLETTENSSPECTIHLEKTGKGLCATKLSASSEDISERLASISVGPSSSTTTTTTTTEQPKPMVQTKGRPHSQCLNSSPLSHHSQLMFPALSTPSSSTPSVPAGTATDVSKHRLQGFIPCRIPSASPQTQRKFSLQFHRNCPENKDSDKLSPVFTQSRPLPSSNIHRPKPSRPTPGNTSKQGDPSKNSMTLDLNSSSKCDDSFGCSSNSSNAVIPSDETVFTPVEEKCRLDVNTELNSSIEDLLEASMPSSDTTVTFKSEVAVLSPEKAENDDTYKDDVNHNQKCKEKMEAEEEEALAIAMAMSASQDALPIVPQLQVENGEDIIIIQQDTPETLPGHTKAKQPYREDTEWLKGQQIGLGAFSSCYQAQDVGTGTLMAVKQVTYVRNTSSEQEEVVEALREEIRMMSHLNHPNIIRMLGATCEKSNYNLFIEWMAGGSVAHLLSKYGAFKESVVINYTEQLLRGLSYLHENQIIHRDVKGANLLIDSTGQRLRIADFGAAARLASKGTGAGEFQGQLLGTIAFMAPEVLRGQQYGRSCDVWSVGCAIIEMACAKPPWNAEKHSNHLALIFKIASATTAPSIPSHLSPGLRDVALRCLELQPQDRPPSRELLKHPVFRTTW | The ability of extracts containing his-tagged hMEKK1 to phosphorylate GST-MKK4 was comparable to the activity of purified mouse MEKK1, and significantly above the background levels seen with control extracts
